Source: patent publication US20220289859A1

Target: FcγRIIIa (UniProt P08637)
Assay: SPR as in Example 4; glyco-enriched samples of belantamab

FcγRIIIa, sequence (P08637 17-208 limits assumed): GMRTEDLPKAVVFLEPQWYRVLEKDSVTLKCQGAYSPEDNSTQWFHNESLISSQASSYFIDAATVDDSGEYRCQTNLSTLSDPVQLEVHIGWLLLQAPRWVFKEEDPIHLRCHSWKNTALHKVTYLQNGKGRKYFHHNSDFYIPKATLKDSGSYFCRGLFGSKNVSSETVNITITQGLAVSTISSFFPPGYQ

Specific FcγRIIIa binding activity: 8%
Substance: belantamab deglycosylated with PNGaseF (antibody)
